Measurements as given in patent US20190002888A1 (INSTITUT NATIONAL DE LA SANTE ET DE LA RECHERCHE MEDICALE …, published 2019).

Columns and labels:
[1] = target: FLT3 receptor in adult mouse DRG sensory neurons (mouse) (UniProt Q00342); assay: cell-based or functional assay
[2] = target: T1, SNAP tagged mouse FLT3, full-length, expressed in HEK293T cells (mouse, UniProt Q00342 28-1000, SNAP tag covalently labelled with SNAP-Lumi4-Tb); assay: TR-FRET displacement of 0.5 nM Red-FL on HEK293T cells expressing SNAP tagged full-length mFLT3
T1 construct: whole, on cells; Transiently transfected HEK293T cells; also called full-length mFLT3; mFLT3; not shown: SNAP tag (plasmid from Cisbio Bioassays)
T1 sequence (looked up): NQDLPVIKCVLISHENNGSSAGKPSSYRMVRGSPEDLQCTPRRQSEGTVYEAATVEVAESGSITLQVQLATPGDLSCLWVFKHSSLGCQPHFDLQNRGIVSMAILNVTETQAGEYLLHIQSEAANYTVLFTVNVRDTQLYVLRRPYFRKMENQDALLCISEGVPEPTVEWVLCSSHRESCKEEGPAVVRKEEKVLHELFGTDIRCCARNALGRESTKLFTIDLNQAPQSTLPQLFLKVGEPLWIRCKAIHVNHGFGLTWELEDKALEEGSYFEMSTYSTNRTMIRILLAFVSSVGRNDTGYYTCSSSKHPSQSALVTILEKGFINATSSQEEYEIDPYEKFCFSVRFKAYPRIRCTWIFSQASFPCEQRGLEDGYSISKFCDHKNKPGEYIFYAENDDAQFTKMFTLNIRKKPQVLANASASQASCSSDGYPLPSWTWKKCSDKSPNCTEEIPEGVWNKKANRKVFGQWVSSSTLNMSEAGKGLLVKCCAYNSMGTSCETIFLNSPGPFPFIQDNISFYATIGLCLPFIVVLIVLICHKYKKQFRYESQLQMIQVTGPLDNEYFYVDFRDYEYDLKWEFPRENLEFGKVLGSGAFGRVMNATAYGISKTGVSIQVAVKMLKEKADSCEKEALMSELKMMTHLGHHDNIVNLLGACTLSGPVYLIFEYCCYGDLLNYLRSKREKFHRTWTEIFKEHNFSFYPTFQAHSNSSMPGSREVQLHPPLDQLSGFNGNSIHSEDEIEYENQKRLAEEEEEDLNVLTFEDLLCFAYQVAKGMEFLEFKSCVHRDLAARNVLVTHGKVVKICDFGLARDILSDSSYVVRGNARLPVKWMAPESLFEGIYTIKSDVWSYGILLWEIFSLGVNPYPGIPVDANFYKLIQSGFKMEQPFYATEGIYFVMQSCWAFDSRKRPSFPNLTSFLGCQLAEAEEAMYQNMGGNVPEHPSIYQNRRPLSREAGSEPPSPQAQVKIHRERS
Procedure: (§1) TR-FRET binding assays. TR-FRET binding assays were performed 24 h after transfection on fresh cells. When using frozen cells, binding assays were carried out immediately after cells thawing. When the assay was carried out on adherent cells in 96-well plates, the cell density was 50,000 cells per well, while a density of 10,000 cells per well was used to carry out binding assays in suspension in 384-well small volume plates.
(§2) Cells were incubated with 0.5 nM Red-FL in the presence of increasing concentrations of the antibody. In the plates containing labelled cells, 50 μl of Tag-lite® labelling medium, 25 μl of compounds to be tested were added and incubated for 1 h at room temperature prior to the addition of 25 μl of Red-FL. Plates were then incubated at room temperature for 4 h or overnight before signal detection.
(§3) Signal detection. Signal was detected using an advanced fluorescence microplate reader (RUBYstar, BMG Labtech) equipped with a HTRF optic module allowing a donor excitation at 337 nm and a signal collection both at 665 nm and 620 nm. A frequency of 20 flashes/well is selected for the laser excitation. […] Results were expressed as percentage of signal measured in the presence of Red-FL alone, corrected for non-specific binding measured in the presence of […].

[3] = target: T2, SNAP tagged human FLT3, full-length, expressed in HEK293T cells (human, UniProt P36888 27-993, SNAP tag covalently labelled with SNAP-Lumi4-Tb); assay: TR-FRET displacement of 0.5 nM Red-FL on HEK293T cells expressing SNAP tagged full-length hFLT3
T2 construct: whole, on cells; Transiently transfected HEK293T cells; also called full-length hFLT3; hFLT3; not shown: SNAP tag (plasmid from Cisbio Bioassays)
T2 sequence (looked up): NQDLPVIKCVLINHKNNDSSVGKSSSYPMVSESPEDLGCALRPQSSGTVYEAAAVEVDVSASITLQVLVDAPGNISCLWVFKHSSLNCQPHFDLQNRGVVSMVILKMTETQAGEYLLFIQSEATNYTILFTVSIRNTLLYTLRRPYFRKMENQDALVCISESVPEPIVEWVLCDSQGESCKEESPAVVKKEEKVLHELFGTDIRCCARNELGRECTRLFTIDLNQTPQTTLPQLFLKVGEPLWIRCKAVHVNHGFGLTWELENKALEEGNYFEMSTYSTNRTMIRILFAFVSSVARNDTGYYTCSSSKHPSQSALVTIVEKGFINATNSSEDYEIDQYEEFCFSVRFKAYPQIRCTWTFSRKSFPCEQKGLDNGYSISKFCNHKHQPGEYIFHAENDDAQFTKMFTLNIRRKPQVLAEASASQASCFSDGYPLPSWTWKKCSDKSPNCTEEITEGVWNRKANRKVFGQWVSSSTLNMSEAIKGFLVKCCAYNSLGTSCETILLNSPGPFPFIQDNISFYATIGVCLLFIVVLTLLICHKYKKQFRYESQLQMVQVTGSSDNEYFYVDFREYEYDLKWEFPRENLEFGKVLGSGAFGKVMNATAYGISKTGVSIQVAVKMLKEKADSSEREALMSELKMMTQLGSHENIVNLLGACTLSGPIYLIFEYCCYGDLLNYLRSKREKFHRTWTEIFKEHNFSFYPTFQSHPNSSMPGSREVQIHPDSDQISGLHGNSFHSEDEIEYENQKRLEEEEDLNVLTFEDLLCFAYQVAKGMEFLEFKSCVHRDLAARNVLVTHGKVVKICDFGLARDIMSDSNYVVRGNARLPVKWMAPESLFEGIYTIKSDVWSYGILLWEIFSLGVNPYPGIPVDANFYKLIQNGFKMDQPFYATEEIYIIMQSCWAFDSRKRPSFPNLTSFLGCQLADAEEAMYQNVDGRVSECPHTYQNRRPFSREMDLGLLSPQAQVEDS
Procedure: as §1, §2, §3

Row | Molecule | mean fold increase in TRPV1 response, ΔFarea [1] [%] | mean fold increase in TRPV1 response, ΔFpeak [1] [%] | potentiation of the capsaicin response ([Ca2+]i, Fura-2) in DRG neurons: share of capsaicin-responding cells potentiated [1] [%] | IC50 [2] [µg/mL] | IC50 [3] [µg/mL]
1 | FL (FLT3-Ligand, from ABCYS SA) | 512 | 212 | 56 |  | 
2 | A3 antibody (human monoclonal antibody against FLT3) (antibody, V domains shown, also called antibody A3; anti-FLT3 A3 antibody) VH: EVQLVESGGSLVKPGGSLRLSCAASGFTFSNSYMNWVRQAPGKGLEWISDISGSSRDIDYADFVKGRFTISRDNATNSLYLQMNSLRAEDTAVYYCVRSGNSGMDVWGRGTLVTVSS VL: QSVLTQPASVSGSPGQSITISCAGTSSDVGGGYYVSWYQQHPGKAPKLMIYYDSYRPSGVSNRFSGSKSGNTASLTISGLQAEDEADYYCSSYTNNSTRVFGGGTKLEIK |  |  |  | ~17 | ~17
